# Measured values reported in patent US8697369B2, “Method for screening a test substance for activating a receptor associated with FGF 21 activity” (National Institute of Advanced Industrial Science and …, priority 2007, dated 2014).
# Assays:
# Format in all cases: cell-based
# [1] = target: T1, humanized FGFR3c (hR3c)-expressing BaF3 cells (Homo sapiens, UniProt P22607, A441S/A461E/A470D/A499P/A500N/A559S/A717S/A734V/A765M/C582S/D512S/D516E/D576E/D580N/D722E/D758Q/D785E/DEL405-414/E426D/E447G/E729D/E768D/F566Y/F579Y/F591S/F767L/G446S/G448T/G548D/G773S/G774F/H721N/I440P/I494L/I698V/I726M/INS417HSQMAVHKLAKSI/INS423TV/INS780T/K420R/K464R/K501R/K583H/L398M/L425A/L457Y/L554I/L645I/L752V/M488L/N428S/N434G/N453G/N644H/P401G/P402T/P436L/P502V/P584N/P778R/Q611K/Q775P/R397K/R399K/R416D/R498K/R568Q/S432N/S468P/S578C/S781C/T435V/T450M/T473V/T504K/T581P/T590S/T753A/T757N/V503T/V523I/V642I/V670I/V751I/V754L); experiment: DNA synthesis in humanized FGFR3c-expressing BaF3 cells; conditions: humanized FGFR3c only; 10 μg/ml heparin
# T1 construct: expressed in transfected cells; host or cells: BaF3 (mouse pro-B) cells; pSRalpha vector
# Description: The homology between human FGFR3 and mouse FGFR3 at the amino acid sequence level is 93%. […] The cDNA of humanized FGFR3c was prepared from a commercially available human RNA sample (Takara Bio Inc.) by PCR. The sequence of its intracellular portion was substituted with the sequence of humanized FGFR1, and it was then introduced into an expression vector having an SRalpha promoter (pSRalpha). The FGFR3c expression vector was introduced into BaF3 cells by an electroporation method, so as to obtain FGFR3c-expressing BaF3 cells as G418-resistant clones. In the case of FGFR3c/betaKlotho-co-expressing cells, a betaKlotho expression vector was introduced into the FGFR3c-expressing BaF3 cells, so as to obtain the aforementioned cells as Puromycin-resistant clones. In the presence of heparin, humanized FGF21 was added in various types of concentrations to FGFR3c-expressing cells or FGFR3c/betaKlotho-co-expressing cells, and the amount of DNA synthesized was then measured.
# [2] = target: T2, FGFR1c-expressing BaF3 cells (Mus musculus, UniProt P16092); experiment: DNA synthesis (thymidine incorporation) in BaF3 cells expressing only FGFR1c; conditions: BaF3 cells expressing FGFR1c but not betaKlotho
# T2 construct: the entire-length cDNA of mouse FGFR1c had been cloned; expressed in transfected cells; host or cells: BaF3 (mouse pro-B) cells
# Description: A commonly used measurement method is a cell growth stimulating activity measurement method described in Ornitz, D. M., Xu, J., Colvin, J. S., McEwen, D. G., MacArthur, C. A., Coulier, F., Gao, G. and Goldfarb, M. (1996) Receptor specificity of the fibroblast growth factor family. J Biol Chem, 271, 15292-15297. The summary thereof is as follows. FGF used as a measurement target is added to a culture solution containing a cultured cell having an FGF receptor on the surface thereof, and the obtained mixture is cultured for a certain period of time. Thereafter, a labeled thymidine is added to the culture solution, followed by further culture for a certain period of time. By measuring the amount of the labeled thymidine incorporated into polymeric DNA during the culture, the degree of FGF to activate DNA synthesis is evaluated. (In the present invention as well, this method was adopted when the activity of FGF21 was measured in Examples 4, 5, 6, 8, 9, and 10.) […]
# Immediately after inoculation, BaF3 cells that had expressed each clone and only FGFR1c were stimulated by addition of FGF21 (open bar) or PBS (filled bar) used as a control in the presence of heparin, and they were then cultured for 42 hours. […] Thereafter, the amount of thymidine incorporated into the cells was measured, so as to evaluate DNA synthesis. […]
# [3] = tested on: control 3T3-L1 fibroblasts; experiment: GLUT1 mRNA level in control 3T3-L1 fibroblasts (empty vector); conditions: various concentrations, 6 hours
# Description: A betaKlotho expression vector or an empty vector used as a control, into which betaKlotho cDNA had not been inserted, were introduced into 3T3-L1 fibroblasts, and FGF21 was then added in various types of concentrations to a culture solution of the 3T3-L1 fibroblasts. The obtained mixture was cultured for 6 hours. Thereafter, RNA was extracted, and the mRNA level of GLUT1 was then measured.
# T1 sequence (P22607 other isoform, or with tags, fused parts or gaps with the stated changes): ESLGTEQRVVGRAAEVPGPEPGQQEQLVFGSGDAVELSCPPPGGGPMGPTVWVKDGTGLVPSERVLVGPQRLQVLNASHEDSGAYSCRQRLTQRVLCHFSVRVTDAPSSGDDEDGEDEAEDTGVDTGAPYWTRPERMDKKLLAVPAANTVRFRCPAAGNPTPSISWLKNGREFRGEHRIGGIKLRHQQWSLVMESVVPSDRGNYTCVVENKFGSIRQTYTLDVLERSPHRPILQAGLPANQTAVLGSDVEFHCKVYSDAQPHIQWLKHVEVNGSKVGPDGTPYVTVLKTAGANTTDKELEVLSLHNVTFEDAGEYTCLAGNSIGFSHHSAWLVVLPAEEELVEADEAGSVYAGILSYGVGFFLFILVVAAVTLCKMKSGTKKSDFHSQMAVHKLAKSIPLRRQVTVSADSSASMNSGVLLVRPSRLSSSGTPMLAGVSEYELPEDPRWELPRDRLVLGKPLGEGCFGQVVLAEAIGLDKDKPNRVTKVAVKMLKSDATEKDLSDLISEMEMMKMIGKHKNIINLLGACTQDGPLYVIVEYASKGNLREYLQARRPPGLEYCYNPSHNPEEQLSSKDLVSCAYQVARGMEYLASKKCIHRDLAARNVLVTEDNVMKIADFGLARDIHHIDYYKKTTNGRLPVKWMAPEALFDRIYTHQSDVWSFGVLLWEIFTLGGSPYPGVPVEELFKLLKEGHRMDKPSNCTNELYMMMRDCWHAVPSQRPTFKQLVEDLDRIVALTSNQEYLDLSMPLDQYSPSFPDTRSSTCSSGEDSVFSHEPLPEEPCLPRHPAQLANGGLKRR
# T2 sequence (P16092 22-822): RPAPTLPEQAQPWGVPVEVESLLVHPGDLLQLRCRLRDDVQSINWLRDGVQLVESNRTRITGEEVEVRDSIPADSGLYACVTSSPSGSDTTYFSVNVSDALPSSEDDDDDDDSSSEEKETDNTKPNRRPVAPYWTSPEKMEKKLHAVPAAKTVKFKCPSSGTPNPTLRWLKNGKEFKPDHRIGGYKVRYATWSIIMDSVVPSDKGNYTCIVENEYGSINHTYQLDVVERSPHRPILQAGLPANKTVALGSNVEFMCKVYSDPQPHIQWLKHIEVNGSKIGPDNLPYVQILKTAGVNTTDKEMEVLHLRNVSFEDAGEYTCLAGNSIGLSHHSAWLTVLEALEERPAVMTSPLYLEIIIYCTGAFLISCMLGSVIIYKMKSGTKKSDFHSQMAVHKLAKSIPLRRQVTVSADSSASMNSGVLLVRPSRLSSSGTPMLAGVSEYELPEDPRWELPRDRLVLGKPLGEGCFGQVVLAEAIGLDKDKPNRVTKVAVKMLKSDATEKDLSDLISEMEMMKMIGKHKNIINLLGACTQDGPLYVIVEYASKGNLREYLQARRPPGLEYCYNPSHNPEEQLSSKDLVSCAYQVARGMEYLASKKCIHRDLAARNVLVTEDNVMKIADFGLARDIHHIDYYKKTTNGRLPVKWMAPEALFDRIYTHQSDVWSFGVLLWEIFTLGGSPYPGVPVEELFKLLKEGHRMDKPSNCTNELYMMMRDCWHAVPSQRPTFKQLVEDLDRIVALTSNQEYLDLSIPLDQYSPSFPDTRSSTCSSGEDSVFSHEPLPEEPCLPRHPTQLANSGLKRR
amount of DNA synthesized (thymidine incorporation) [1],DNA synthesis (thymidine incorporated into the cells) [2],Molecule,mRNA level of GLUT1 [3]
promoted the DNA synthesis,,FGF1: conventional FGF used as a control,
,did not react with FGF21,FGF21: fibroblast growth factor 21; mouse-derived protein used in Examples 1-7 and 10-13 (protein) AYPIPDSSPLLQFGGQVRQRYLYTDDDQDTEAHLEIREDGTVVGAAHRSPESLLELKALKPGVIQILGVKASRFLCQQPDGALYGSPHFDPEACSFRELLLEDGYNVYQSEAHGLPLRLPQKDSPNQDATSWGPVRFLPMPGLLHEPQDQAGFLPPEPPDVGSSDPLSMVEPLQGRSPSYAS,not observed
